Patent publication US20090227507A1, “Angiotensin (1-7) Dosage Forms and Uses Thereof” (UNIVERSITY OF SOUTHERN CALIFORNIA, priority 2008, published 2009)
“Also recorded” adds a separate entry of the source.

Test: Adverse events, safety and tolerability in healthy men
[1] = 200 μg/kg group, of the 7 events
[2] = 300 μg/kg group, of the 13 events

Text: Safety: Safety and tolerance evaluations included: • Tolerability including local reactions at the injection site. • Vital signs (blood pressure [BP], pulse rate [PR], respiration rate [RR], and temperature). • Routine clinical laboratory tests (hematology, serum biochemistry, and urinalysis). • Recording of adverse events (AE). • Electrocardiograms (ECG) at baseline and Day 8.
Descriptive statistics were used to summarize adverse events (AEs). Descriptive statistics, with change from baseline, were used for clinical laboratory results, vital signs, and flow cytometry data. Shift tables were prepared for clinical laboratory results. Other data are listed.
Safety evaluations are based on AEs, PEs, vital signs, temperature, and laboratory results from baseline to study completion. Laboratory measurements were conducted by a local clinical laboratory. Using standard procedures, blood samples were drawn or urine collected from subjects for the following laboratory tests:
All AEs were coded using the Medical Dictionary for Regulatory Activities Version 5.1 (MedDRA®).

## Asp-Arg-Val-Tyr-Ile-His-Pro [USB003]
200 μg/kg
  incidence of ALT increase: 22.2%
  incidence of body temperature increase: 0.0%
200 μg/kg (N = 9)
  ALT increased, Events: 2
  ALT increased, Subjects: 2 (22.2) N (%)
  AST increased, Events: 1
  AST increased, Subjects: 1 (11.1) N (%)
  Body temperature increased, Events: 0
  Body temperature increased, Subjects: 0 (0.0) N (%)
  Cyst NOS, Events: 1
  Cyst NOS, Subjects: 1 (11.1) N (%)
  Gastroesophageal reflux, Events: 0
  Gastroesophageal reflux, Subjects: 0 (0.0) N (%)
  Gastrointestinal disorders, Events: 0
  Gastrointestinal disorders, Subjects: 0 (0.0) N (%)
  Headache, Events: 0
  Headache, Subjects: 0 (0.0) N (%)
  Infections/Infestations, Events: 0
  Injury, poisoning and procedural complications, Events: 0
  Injury, poisoning and procedural complications, Subjects: 0 (0.0) N (%)
  Investigations, Events: 4
  Investigations, Subjects: 2 (22.2) N (%)
  Joint sprain, Events: 0
  Joint sprain, Subjects: 0 (0.0) N (%)
  Nasal congestion, Events: 1
  Nasal congestion, Subjects: 1 (11.1) N (%)
  Nausea, Events: 0
  Nausea, Subjects: 0 (0.0) N (%)
  Neoplasms benign, Events: 1
  Neoplasms benign, Subjects: 1 (11.1) N (%)
  Nervous system disorders, Events: 0
  Nervous system disorders, Subjects: 0 (0.0) N (%)
  Neutrophil count increased, Events: 0
  Neutrophil count increased, Subjects: 0 (0.0) N (%)
  Pharyngitis, Events: 1
  Pharyngitis, Subjects: 1 (11.1) N (%)
  Respiratory, thoracic and mediastinal disorders, Events: 2
  Respiratory, thoracic and mediastinal disorders, Subjects: 1 (11.1) N (%)
  Subjects With At Least 1 AE, Events: 7
  Subjects With At Least 1 AE, Subjects: 4 (44.4) N (%)
  WBC increased, Events: 1
  WBC increased, Subjects: 1 (11.1) N (%)
  White blood cells in urine, Events: 0
  White blood cells in urine, Subjects: 0 (0.0) N (%)
200 μg/kg dose group
  subjects with clinically significant (CS) out-of-range laboratory values: 3
  total CS laboratory abnormalities: 6
200 μg/kg group
  incidence of AEs: 44.4%
[1]
  AE events assessed as doubtful relationship to study drug: 3
  AE events assessed as not related to study drug: 2
  AE events assessed as possible relationship to study drug: 2
200 μg/kg, Day 7, resolved without treatment on Study Day 10
  adverse event, Subject 028: cystic nodule on their anterior abdominal wall
300 μg/kg
  incidence of ALT increase: 0.0%
  incidence of body temperature increase: 50%
300 μg/kg (N = 8)
  ALT increased, Events: 0
  ALT increased, Subjects: 0 (0.0) N (%)
  AST increased, Events: 1
  AST increased, Subjects: 1 (12.5) N (%)
  Body temperature increased, Events: 7
  Body temperature increased, Subjects: 4 (50.0) N (%)
  Cyst NOS, Events: 0
  Cyst NOS, Subjects: 0 (0.0) N (%)
  Gastroesophageal reflux, Events: 0
  Gastroesophageal reflux, Subjects: 0 (0.0) N (%)
  Gastrointestinal disorders, Events: 1
  Gastrointestinal disorders, Subjects: 1 (12.5) N (%)
  Headache, Events: 0
  Headache, Subjects: 1 (12.5) N (%)
  Infections/Infestations, Events: 1
  Injury, poisoning and procedural complications, Events: 1
  Injury, poisoning and procedural complications, Subjects: 1 (12.5) N (%)
  Investigations, Events: 9
  Investigations, Subjects: 4 (50.0) N (%)
  Joint sprain, Events: 1
  Joint sprain, Subjects: 1 (12.5) N (%)
  Nasal congestion, Events: 0
  Nasal congestion, Subjects: 0 (0.0) N (%)
  Nausea, Events: 1
  Nausea, Subjects: 1 (12.5) N (%)
  Neoplasms benign, Events: 0
  Neoplasms benign, Subjects: 0 (0.0) N (%)
  Nervous system disorders, Events: 0
  Nervous system disorders, Subjects: 1 (12.5) N (%)
  Neutrophil count increased, Events: 1
  Neutrophil count increased, Subjects: 1 (12.5) N (%)
  Pharyngitis, Events: 0
  Pharyngitis, Subjects: 0 (0.0) N (%)
  Respiratory, thoracic and mediastinal disorders, Events: 0
  Respiratory, thoracic and mediastinal disorders, Subjects: 0 (0.0) N (%)
  Subjects With At Least 1 AE, Events: 13
  Subjects With At Least 1 AE, Subjects: 4 (50.0) N (%)
  WBC increased, Events: 0
  WBC increased, Subjects: 0 (0.0) N (%)
  White blood cells in urine, Events: 0
  White blood cells in urine, Subjects: 0 (0.0) N (%)
300 μg/kg dose group
  subjects with clinically significant (CS) out-of-range laboratory values: 1
  total CS laboratory abnormalities: 2
300 μg/kg dose group, temperature >37.7° C.
  subjects with elevations in oral body temperature assessed as an AE: 4
300 μg/kg group
  incidence of AEs: 50.0%
[2]
  AE events assessed as doubtful relationship to study drug: 2
  AE events assessed as not related to study drug: 3
  AE events assessed as possible relationship to study drug: 8
300 μg/kg, Day 2
  onset of headache after the morning dose, Subject 053: 10 h
  time to resolution of headache without treatment, Subject 053: 5 h
300 μg/kg, study Day 18
  severity of ankle sprain, Subject 046: Grade 2
SC doses of 200 and 300 μg/kg
  deaths or serious adverse events: no deaths or other serious adverse events; also recorded: no deaths or SAEs
  discontinuation from the study because of an AE: no subject discontinued from the study because of an AE; also recorded: no AE led to withdrawal from the study
  safety and tolerability: safe and well tolerated
Whole study
  CTC scores of AEs: no AEs with CTC scores of Grade 3 or higher and only 1 Grade 2 toxicity
